Source: article PMC5589264, “Reversible unfolding of infectious prion assemblies reveals the existence of an oligomeric elementary brick” (PLoS Pathogens, 2017)

Biological target: the molecule itself
Assay: SEC

B1: prion protein (PrP) from 263K-infected Syrian hamster brain (natural protein)
chain: not shown
notes: also called PrP^Sc; 263K PrP^Sc
With B1 the “stoichiometry N” value was roughly 3.
